Results as given in patent WO2016008851A1 (dated 2016).

Columns and labels:
[1] = biological target: T1, recombinant human IL-1B (human, UniProt P01584 117-269); assay: cell-based or functional assay
[2] = biological target: Endogenous human IL-1B (THP1 supernatants) (human, UniProt P01584 117-269); assay: cell-based or functional assay
[3] = biological target: recombinant cynomolgus IL-1B (cynomolgus, UniProt P79182 117-268, limits assumed); assay: cell-based or functional assay
[4] = biological target: recombinant mouse IL-1B (mouse, UniProt P10749 118-269); assay: cell-based or functional assay
[5] = biological target: T1, recombinant human IL-1B; assay: Kinexa
[6] = biological target: T1, recombinant human IL-1B; assay: Kinexa, solution equilibrium titration of hIL-1B against 10 pM antibody; mean ± SEM (N = 3)

recombinant cynomolgus IL-1B, sequence (P79182 117-268 limits assumed): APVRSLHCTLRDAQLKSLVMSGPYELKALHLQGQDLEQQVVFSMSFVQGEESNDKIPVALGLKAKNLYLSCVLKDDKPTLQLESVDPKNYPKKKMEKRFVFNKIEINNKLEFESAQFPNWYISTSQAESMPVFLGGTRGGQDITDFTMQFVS
recombinant mouse IL-1B, sequence (P10749 118-269 limits assumed): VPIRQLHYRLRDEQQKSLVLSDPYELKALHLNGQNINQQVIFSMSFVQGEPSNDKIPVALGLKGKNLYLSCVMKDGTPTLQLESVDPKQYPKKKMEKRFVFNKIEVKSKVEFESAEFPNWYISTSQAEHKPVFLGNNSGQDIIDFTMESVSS

| Binder | IC50, rec. human IL-1 B, HEK blue [1] [nM] | IC50, rec. human IL-1 B, MRC-5 (IL-6 production) [1] [nM] | IC90, rec. human IL-1 B, HEK blue [1] [nM] | IC90, rec. human IL-1 B, MRC-5 (IL-6 production) [1] [nM] | IC50, Endogenous human IL-1 B (THP1 supernatants), HEK blue [2] [nM] | IC90, Endogenous human IL-1 B (THP1 supernatants), HEK blue [2] [nM] | IC50, rec. cyno IL-1 B, HEK blue [3] [nM] | IC90, rec. cyno IL-1 B, HEK blue [3] [nM] | IC50, rec. mouse IL-1 B, HEK blue [4] [nM] | IC90, rec. mouse IL-1 B, HEK blue [4] [nM] | IC50, mouse IL-1 B-induced KC release, mouse endothelial bEnd3 cells stimulated with 15 pM recombinant mouse IL-1 B [4] [nM] | Kd [5] [nM] | Kd [6] [nM] |
| --- | --- | --- | --- | --- | --- | --- | --- | --- | --- | --- | --- | --- | --- |
| Antibody A1 (antibody, V domains shown) VH: QVQLVQSGAEVKKPGASVKVSCKATGYTFTNYWIAWVKQAPGQGLEWMGSIFPGGDYTNYNEKFKGKVTMTRDTSTSTSYMELSSLRSEDTAVYYCARPYYSNYGHFDYWGQGTLVTVSS VL: EIVLTQSPATLSLSPGERATLSCRASESVDNSGIGFMNWYQQKPGQAPKLLIYAASNQGSGIPARFSGSGSGTDFTLTISRLEPEDFAMYYCQQNKELPWTFGGGTKLEIK | 0.033 | 0.01 | 0.329 | 0.131 | 0.009 | 0.15 | 0.03 | 0.167 | 1.14 | 3.25 | – | – | – |
| Antibody A4 (antibody, V domains shown) VH: QVQLVQSGAEVKKPGASVKVSCKATGYTFTDYWIAWVRQAPGQGLEWMGSIFPGGDYTNYNEKFKGRVTMTRDTSTSTSYMELSSLRSEDTAVYYCARPYYSNYGHFDYWGQGTLVTVSS VL: EIVLTQSPATLSLSPGERATLSCRASESVDNSGIGFMNWYQQKPGQAPRLLIYAASNQGSGIPARFSGSGSGTDFTLTISRLEPEDFAVYYCQQNKELPWTFGQGTKLEIK | 0.04 | 0.016 | 0.495 | 0.125 | 0.036 | 0.262 | 0.026 | 0.205 | 1.08 | 3.98 | – | – | – |
| Antibody A3 (antibody, V domains shown) VH: QVQLVQSGAEVKKPGASVKVSCKATGYTFTDYWIAWVRQAPGQGLEWMGSIFPGGDYTNYNEKFKGRVTMTRDTSTSTSYMELSSLRSEDTAIYYCARPYYSNYGHFDYWGQGTLVTVSS VL: EIILTQFPATLSLSPGERATISCRASESVDNSGIGFMNWYQQKPGQAPRLLIYAASNQGSGIPARFSGSGSGTDFTLTISRLEPEDFAVYYCQQNKELPWTFGQGTKLEIK | 0.042 | 0.013 | 0.34 | 0.162 | 0.008 | 0.246 | 0.023 | 0.236 | 0.998 | 3.64 | – | – | – |
| 36C2 (original hybridoma antibody) (antibody, V domains shown) VH: QVQLQQSGAELARPGTSLKMSCKATGYTFTNYWIAWVKQRPGYGLEWIGSIFPGGDYTNYNEKFKGKATLTADTSSSTSYMQLSSLTSEDSAIYYCTRPYYSNYGHFDYWGQGTTLTVSS VL: not shown | – | – | – | – | – | – | – | – | – | – | 0.5 | – | – |
| 36C2 (recombinant chimeric antibody: mouse 36C2 variable domains, human IgG1 constant domains) (antibody, V domains shown, also called chimeric antibody 36C2) VH: QVQLQQSGAELARPGTSLKMSCKATGYTFTNYWIAWVKQRPGYGLEWIGSIFPGGDYTNYNEKFKGKATLTADTSSSTSYMQLSSLTSEDSAIYYCTRPYYSNYGHFDYWGQGTTLTVSS VL: not shown | 0.017 | 0.007 | 0.15 | 0.044 | 0.003 | 0.096 | 0.014 | 0.154 | – | – | – | < 0.01 | 0.00556 |
| Antibody B1 (antibody, V domains shown) VH: EVQLVQSGAEVKKPGASVKVSCKASGFSFTGYYMHWVRQAPGQGLEWVGLIIPHNDYTVNNQKFKGRVTMTRDTSTSTAYMELSSLRSEDTAVYYCARSDYYGAMDYWGQGTLVTVSS VL: EIVMTQSPATLSVSPGERATLSCRASQNIGTSIHWYQQKPGQAPRLLIKYASNSIYGIPARFSGSGSGTEFTLTISSLQSEDIAVYYCQQGASWPPFTFGQGTKLEIK | 0.013 | 0.013 | 0.11 | 0.11 | 0.003 | 0.068 | 0.013 | 0.127 | – | – | – | – | – |
| Antibody B4 (antibody, V domains shown) VH: EVQLVQSGAEVKKPGASVKVSCKASGFSFTGYYMHWVRQAPGQGLEWVGLIIPHNDYTVNNQKFKGRVTMTRDTSTSTAYMELSSLRSEDTAVYYCARSDYYGAMDYWGQGTLVTVSS VL: EIVMTQSPATLSVSPGERATLSCRASQNIGTSIHWYQQKPGQAPRLLIKYASDSKDGIPARFSGSGSGTEFTLTISSLQSEDIAVYYCQQGASWPPFTFGQGTKLEIK | 0.018 | 0.018 | 0.098 | 0.098 | 0.007 | 0.091 | 0.02 | 0.101 | – | – | – | – | – |
| Antibody B3 (antibody, V domains shown) VH: EVQLVQSGAEVKKPGASVKVSCKASGFSFTGYYMHWVRQAPGQGLEWVGLIIPHNDYTVNNQKFKGRVTMTRDTSTSTAYMELSSLRSEDTAVYYCARSDYYGAMDYWGQGTLVTVSS VL: EIVMTQSPATLSVSPGERATLSCRASQNIGTSIHWYQQKPGQAPRLLIKYASDSVYGIPARFSGSGSGTEFTLTISSLQSEDIAVYYCQQGASWPPFTFGQGTKLEIK | 0.008 | 0.008 | 0.257 | 0.257 | 0.001 | 0.075 | 0.014 | 0.154 | – | – | – | – | – |
